From patent US5478723A, “Method and apparatus for determining the role of cytochrome P450 and related enzymes in the metabolism of drugs and other chemicals” (priority 1993, dated 1995)

Experiment: Storage stability of P450 enzymes in frozen human liver
Type: physicochemical
Settings: human liver at -65 to -90 degrees C, up to six months
Description: P450 enzymes in frozen liver microsomes appear to be relatively stable.

B1: CYP1A2: P450 enzyme in frozen human liver (protein, UniProt P05177 2-516, looked up)
Cytochrome P450 1A2: ALSQSVPFSATELLLASAIFCLVFWVLKGLRPRVPKGLKSPPEPWGWPLLGHVLTLGKNPHLALSRMSQRYGDVLQIRIGSTPVLVLSRLDTIRQALVRQGDDFKGRPDLYTSTLITDGQSLTFSTDSGPVWAARRRLAQNALNTFSIASDPASSSSCYLEEHVSKEAKALISRLQELMAGPGHFDPYNQVVVSVANVIGAMCFGQHFPESSDEMLSLVKNTHEFVETASSGNPLDFFPILRYLPNPALQRFKAFNQRFLWFLQKTVQEHYQDFDKNSVRDITGALFKHSKKGPRASGNLIPQEKIVNLVNDIFGAGFDTVTTAISWSLMYLVTKPEIQRKIQKELDTVIGRERRPRLSDRPQLPYLEAFILETFRHSSFLPFTIPHSTTRDTTLNGFYIPKKCCVFVNQWQVNHDPELWEDPSEFRPERFLTADGTAINKPLSEKMMLFGMGKRRCIGEVLAKWEIFLFLAILLQQLEFSVPPGVKVDLTPIYGLTMKHARCEHVQARLRFSIN
Question: With B1 as the molecule, how does the degradation on storage read?
Answer: The degradation on storage was “no detectable degradation”.

B2: CYP2A6: P450 enzyme in frozen human liver (protein, UniProt P11509 1-494, looked up)
Cytochrome P450 2A6: MLASGMLLVALLVCLTVMVLMSVWQQRKSKGKLPPGPTPLPFIGNYLQLNTEQMYNSLMKISERYGPVFTIHLGPRRVVVLCGHDAVREALVDQAEEFSGRGEQATFDWVFKGYGVVFSNGERAKQLRRFSIATLRDFGVGKRGIEERIQEEAGFLIDALRGTGGANIDPTFFLSRTVSNVISSIVFGDRFDYKDKEFLSLLRMMLGIFQFTSTSTGQLYEMFSSVMKHLPGPQQQAFQLLQGLEDFIAKKVEHNQRTLDPNSPRDFIDSFLIRMQEEEKNPNTEFYLKNLVMTTLNLFIGGTETVSTTLRYGFLLLMKHPEVEAKVHEEIDRVIGKNRQPKFEDRAKMPYMEAVIHEIQRFGDVIPMSLARRVKKDTKFRDFFLPKGTEVYPMLGSVLRDPSFFSNPQDFNPQHFLNEKGQFKKSDAFVPFSIGKRNCFGEGLARMELFLFFTTVMQNFRLKSSQSPKDIDVSPKHVGFATIPRNYTMSFLPR
Question: For B2, which degradation on storage is on record?
Answer: The degradation on storage was “no detectable degradation”.

B3: CYP2D6: P450 enzyme in frozen human liver (protein, UniProt P10635 1-497, looked up)
Cytochrome P450 2D6: MGLEALVPLAVIVAIFLLLVDLMHRRQRWAARYPPGPLPLPGLGNLLHVDFQNTPYCFDQLRRRFGDVFSLQLAWTPVVVLNGLAAVREALVTHGEDTADRPPVPITQILGFGPRSQGVFLARYGPAWREQRRFSVSTLRNLGLGKKSLEQWVTEEAACLCAAFANHSGRPFRPNGLLDKAVSNVIASLTCGRRFEYDDPRFLRLLDLAQEGLKEESGFLREVLNAVPVLLHIPALAGKVLRFQKAFLTQLDELLTEHRMTWDPAQPPRDLTEAFLAEMEKAKGNPESSFNDENLRIVVADLFSAGMVTTSTTLAWGLLLMILHPDVQRRVQQEIDDVIGQVRRPEMGDQAHMPYTTAVIHEVQRFGDIVPLGVTHMTSRDIEVQGFRIPKGTTLITNLSSVLKDEAVWEKPFRFHPEHFLDAQGHFVKPEAFLPFSAGRRACLGEPLARMELFLFFTSLLQHFSFSVPTGQPRPSHHGVFAFLVSPSPYELCAVPR
Question: With B3 as the molecule, how does the degradation on storage read?
Answer: The degradation on storage was “no detectable degradation”.

B4: CYP2E1: P450 enzyme in frozen human liver (protein, UniProt P05181 1-493, looked up)
Cytochrome P450 2E1: MSALGVTVALLVWAAFLLLVSMWRQVHSSWNLPPGPFPLPIIGNLFQLELKNIPKSFTRLAQRFGPVFTLYVGSQRMVVMHGYKAVKEALLDYKDEFSGRGDLPAFHAHRDRGIIFNNGPTWKDIRRFSLTTLRNYGMGKQGNESRIQREAHFLLEALRKTQGQPFDPTFLIGCAPCNVIADILFRKHFDYNDEKFLRLMYLFNENFHLLSTPWLQLYNNFPSFLHYLPGSHRKVIKNVAEVKEYVSERVKEHHQSLDPNCPRDLTDCLLVEMEKEKHSAERLYTMDGITVTVADLFFAGTETTSTTLRYGLLILMKYPEIEEKLHEEIDRVIGPSRIPAIKDRQEMPYMDAVVHEIQRFITLVPSNLPHEATRDTIFRGYLIPKGTVVVPTLDSVLYDNQEFPDPEKFKPEHFLNENGKFKYSDYFKPFSTGKRVCAGEGLARMELFLLLCAILQHFNLKPLVDPKDIDLSPIHIGFGCIPPRYKLCVIPRS
Question: Which degradation on storage does the source give for B4 here?
Answer: Its degradation on storage is “no detectable degradation”.
